Measurements from patent US20160068605A1 (Janssen / Centocor, published 2016).

T1: human CD123 SP1 ECD displayed on pDisplay-transfected cells (human, UniProt P26951 20-305)
T1 construct: ECD anchored on the surface of stably transfected HEK293 cells by the PDGFR transmembrane domain; also called hCD123 SP1 cells; hCD123 cells
T1 sequence: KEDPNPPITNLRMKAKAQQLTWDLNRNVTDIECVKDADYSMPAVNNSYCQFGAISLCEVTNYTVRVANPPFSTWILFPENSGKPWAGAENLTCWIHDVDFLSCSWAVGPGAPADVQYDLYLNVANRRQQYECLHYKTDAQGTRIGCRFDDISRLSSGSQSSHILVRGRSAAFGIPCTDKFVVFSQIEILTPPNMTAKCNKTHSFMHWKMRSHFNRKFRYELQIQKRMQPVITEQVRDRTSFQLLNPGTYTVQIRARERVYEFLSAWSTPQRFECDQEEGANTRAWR

T2: Recombinant human CD123 SP1 ECD-His tag protein (human, UniProt P26951 20-305)
T2 construct: bought from R&D Systems (#301-R3/CF); biotinylated for some assays; also called rhCD123 SP1; huCD123 ECD SP1
T2 sequence: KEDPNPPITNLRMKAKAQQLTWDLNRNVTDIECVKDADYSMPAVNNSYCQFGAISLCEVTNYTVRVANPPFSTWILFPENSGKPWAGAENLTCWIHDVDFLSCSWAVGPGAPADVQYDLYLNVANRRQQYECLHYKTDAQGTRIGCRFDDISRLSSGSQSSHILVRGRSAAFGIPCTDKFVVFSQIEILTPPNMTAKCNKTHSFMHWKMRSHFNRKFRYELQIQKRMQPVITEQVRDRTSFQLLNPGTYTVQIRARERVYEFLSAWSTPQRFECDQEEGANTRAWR

T3: Recombinant human CD123 SP2 ECD protein (human, UniProt P26951 101-303)
T3 construct: also called rhCD123 SP2; CD123 ECD SP2
T3 sequence: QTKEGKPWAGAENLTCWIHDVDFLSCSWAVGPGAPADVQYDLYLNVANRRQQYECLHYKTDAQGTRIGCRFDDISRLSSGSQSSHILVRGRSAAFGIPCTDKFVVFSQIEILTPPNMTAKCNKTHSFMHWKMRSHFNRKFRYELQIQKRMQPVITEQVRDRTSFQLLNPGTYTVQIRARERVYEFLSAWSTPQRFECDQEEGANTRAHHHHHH

T4: cyno CD123 ECD displayed on pDisplay-transfected cells (cynomolgus monkey)
T4 construct: ECD anchored on the surface of stably transfected HEK293 cells; also called cynoCD123 SP1 cells; cynoCD123 cells
T4 chain: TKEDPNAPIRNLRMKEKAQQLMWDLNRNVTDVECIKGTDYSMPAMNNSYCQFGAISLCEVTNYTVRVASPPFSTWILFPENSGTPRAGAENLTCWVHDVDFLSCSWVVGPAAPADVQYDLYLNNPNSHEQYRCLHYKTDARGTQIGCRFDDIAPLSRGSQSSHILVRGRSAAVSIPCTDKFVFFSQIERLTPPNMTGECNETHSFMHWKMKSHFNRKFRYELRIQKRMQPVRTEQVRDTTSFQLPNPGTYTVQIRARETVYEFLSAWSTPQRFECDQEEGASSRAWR

T5: sp2 isoform of human CD123 ECD with C-terminal 8xHis tag (crystallography) (human, UniProt P26951 101-303)
T5 construct: expressed in baculovirus-infected insect cells; also called CD123 sp2; CD123 SP2 ECD
T5 sequence: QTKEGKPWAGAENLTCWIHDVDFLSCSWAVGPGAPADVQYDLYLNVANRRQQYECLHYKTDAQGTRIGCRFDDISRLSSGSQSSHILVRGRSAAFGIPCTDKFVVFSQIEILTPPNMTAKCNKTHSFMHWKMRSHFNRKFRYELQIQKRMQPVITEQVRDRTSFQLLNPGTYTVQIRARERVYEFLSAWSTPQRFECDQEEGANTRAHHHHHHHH


Columns and labels:
[1] = target: T1, human CD123 SP1 ECD displayed on …; experiment: MSD-CAT, hCD123 cells, assay-2, fit with parameter Bo constrained
Description: (§1) After equilibration the plate was centrifuged for 5 min ˜1000 rpm and free anti-CD3 detected on the supernatant. […] The assay buffer was removed without washing and 50 μL/well of 0.7 μg/mL of biotinylated antigen in assay buffer were added to MSD plates and incubated overnight (˜16 hr at 4° C.). After overnight incubation, the plates were blocked by adding 150 μL/well of assay buffer without removing coating antigen, incubated for ˜1 hr at ambient temperature and washed 5 times with wash buffer (assay buffer without BSA). 50 μL/well of the supernantants from samples plate were transferred to antigen-coated plates, incubated for 60 min, and then washed three times with wash Buffer. After this 50 μL per well of ruthenium labeled detection antibody(anti-human H+L) were added and incubated for 1 hr. After 1 hr the plates were washed and 150 μL of MSD Read Buffer (prepared by diluting 1:4 of stock into d. H₂O) were added per well. The plates were read immediately on the MSD Sector Imager 6000 Reader for luminescence levels. ECL signal detected by MSD was expressed in term of % free antibody in the mixture and the data was analyzed to determine affinity using a user defined equation (derived from the law of mass action) introduced in Prism software.

[2] = target: T1, human CD123 SP1 ECD displayed on …; experiment: MSD-CAT, hCD123 cells, assay-1
Description: as §1

[3] = target: T1, human CD123 SP1 ECD displayed on …; experiment: MSD-CAT, hCD123 cells, assay-1, fit with parameter Bo constrained
Description: as §1

[4] = target: T1, human CD123 SP1 ECD displayed on …; experiment: MSD-CAT, hCD123 cells, assay-2
Description: as §1

[5] = target: T2, Recombinant human CD123 SP1 ECD-His tag …; experiment: SPR Biacore 3000, captured Fab
Description: (§2) Kinetic studies were performed at 25° C. using a Biacore 3000 (BIAcore, Inc., now part of GE Healthcare). […] Sheep anti-Human Fd specific antibody (The binding site Prod # PC075) was covalently attached to two flow cells (normally 3 and 4) of the carboxymethyl dextran coated gold surfaces (CM-5 Chip, Biacore). The carboxymethyl groups of dextran were activated with N-Ethyl-N′-(3-Dimethylaminopropyl)carbodiimide (EDC) and N-hydroxysuccinimide (NHS). The antibodies were coupled at pH 4.5 in 10 mM sodium acetate. Any remaining reactive sites on the surface were blocked by reaction with ethanolamine. […] Association data was collected for 2 min followed by 10 min of dissociation. The surface was regenerated with 30 μL of 100 mM H3PO4 100 μL/min. All samples were prepared in D-PBS containing 3 mM EDTA and 0.005% surfactant P20. Data reported is the difference in SPR signal between the flow cell containing the captured antibody or Fab and a reference cell without captured antibody or Fab. Additional instrumental contributions to the signal were removed by subtraction of the data from the blank injection from the reference-subtracted signal. Data were performed in triplicate and analyzed by fitting association and dissociation phases at all concentrations (global fit) with a 1:1 binding model using the BIAevaluation software (BIAcore, Inc.). […] Data presented is an average.

[6] = target: T3, Recombinant human CD123 SP2 ECD protein; experiment: SPR Biacore 3000, captured Fab
Description: as §2

[7] = target: T4, cyno CD123 ECD displayed on …; experiment: MSD-CAT on pDisplay cells
Description: as §1

[8] = target: T4, cyno CD123 ECD displayed on …; experiment: MSD-CAT, cynoCD123 cells, assay-1
Description: (§3) The MSD-CAT was developed in-house as a label-free method to determine affinity using intact cells in a high throughput format. […] Cell lines used were human pDisplay CD and cyno pDisplay CD123SP1. […] These samples were prepared in DMEM Glutamax medium containing 0.05% Azide, 1% BSA, 3 mM EDTA. The receptor numbers of (3.15-4.18)×10⁶ hCD123/cell and (4.78-9.24) 10⁶ cyCD123/cell were converted to M receptor concentration in the mixture on the basis of the volume of reaction, the cell density (cells/L) and the Avogadro's number. […] After equilibration the plate was centrifuged for 5 min ˜1000 rpm and free anti-CD3 detected on the supernatant.

[9] = target: T4, cyno CD123 ECD displayed on …; experiment: MSD-CAT, cynoCD123 cells, assay-2
Description: as §3

[10] = target: T5, sp2 isoform of human CD123 ECD with …; experiment: size-exclusion chromatography of the mixed proteins
Description: The protein was concentrated to 18 mg/mL in 20 mM HEPES, pH 7.5, 100 mM NaCl.

[11] = target: T3, Recombinant human CD123 SP2 ECD protein; experiment: SPR Biacore 3000, captured Fab; footnote: assay response is lower than expected
Description: as §2

Row | Kd [1] [nM] | Kd [2] [nM] | Kd [3] [nM] | Kd [4] [nM] | Kd [5] [nM] | koff [5] [s⁻¹] | kon [5] [M⁻¹ s⁻¹] | Kd [6] [nM] | fold difference of affinity against human CD123 SP1 [7] [fold] | Kd [8] [nM] | Kd [9] [nM] | binding result [10] | Kd [11] [nM] | Binder
1 | 3.81 | ~0.00337 | 344 | ~3.84 | 8.5 | 0.00304 | 357000 | 1.4 | < 5 | 2.4 | > 11.9 |  |  | I3RB120 (Fab, V domains shown, also called Fab I3RB120; I3RB2 Fab) VH: EVQLLESGGGLVQPGGSLRLSCAASGFTFSGYWMHWVRQAPGKGLEWVSAIRSDGSSKYYADSVKGRFTISRDNSKNTLYLQMNSLRAEDTAVYYCAKDGVIEDTFDYWGQGTLVTVSS VL: EIVLTQSPATLSLSPGERATLSCRASQSVSSYLAWYQQKPGQAPRLLIYDASNRATGIPARFSGSGSGTDFTLTISSLEPEDFAVYYCQQRSNWPLTFGQGTKVEIK
2 |  |  |  |  |  |  |  |  |  |  |  | binds |  | single-chain Fv fragment of anti-CD123 mAb I3RB18 (scFv, form VL-(Gly4Ser)4-VH-Gly-His6, expressed in HEK293 Expi cells; also called I3RB18 scFv; I3RB18 derived scFv) scFv: EIVLTQSPGTLSLSPGERATLSCRASQSVSSSYLAWYQQKPGQAPRLLIYGASSRATGIPDRFSGSGSGTDFTLTISRLEPEDFAVYYCQQDYGFPWTFGQGTKVEIKGGGGSGGGGSGGGGSGGGGSEVQLVQSGAEVKKPGESLKISCKGSGYSFTSYWISWVRQMPGKGLEWMGIIDPSDSDTRYSPSFQGQVTISADKSISTAYLQWSSLKASDTAMYYCARGDGSTDLDYWGQGTLVTVSSGHHHHHH
3 |  |  |  |  | 6.3 | 0.00245 | 387000 |  |  |  |  |  | 1.2 | I3RB121 (Fab, V domains shown, also called Fab of I3RB35) VH: QVQLVQSGAEVKKPGSSVKVSCKASGGTFSSYAISWVRQAPGQGLEWMGGIIPIFGTANYAQKFQGRVTITADESTSTAYMELSSLRSEDTAVYYCARHLFWDAGPLDYWGQGTLVTVSS VL: DIQMTQSPSSLSASVGDRVTITCRASQSISSYLNWYQQKPGKAPKLLIYAASSLQSGVPSRFSGSGSGTDFTLTISSLQPEDFATYYCQQYFSPPYTFGQGTKVEIK
